Results: patent US20180244754A1

Molecular target: human GH receptor (hGHR) (human) (UniProt P10912)
Test: cell-based or functional assay

UniProt P10912, sequence (P10912 19-638): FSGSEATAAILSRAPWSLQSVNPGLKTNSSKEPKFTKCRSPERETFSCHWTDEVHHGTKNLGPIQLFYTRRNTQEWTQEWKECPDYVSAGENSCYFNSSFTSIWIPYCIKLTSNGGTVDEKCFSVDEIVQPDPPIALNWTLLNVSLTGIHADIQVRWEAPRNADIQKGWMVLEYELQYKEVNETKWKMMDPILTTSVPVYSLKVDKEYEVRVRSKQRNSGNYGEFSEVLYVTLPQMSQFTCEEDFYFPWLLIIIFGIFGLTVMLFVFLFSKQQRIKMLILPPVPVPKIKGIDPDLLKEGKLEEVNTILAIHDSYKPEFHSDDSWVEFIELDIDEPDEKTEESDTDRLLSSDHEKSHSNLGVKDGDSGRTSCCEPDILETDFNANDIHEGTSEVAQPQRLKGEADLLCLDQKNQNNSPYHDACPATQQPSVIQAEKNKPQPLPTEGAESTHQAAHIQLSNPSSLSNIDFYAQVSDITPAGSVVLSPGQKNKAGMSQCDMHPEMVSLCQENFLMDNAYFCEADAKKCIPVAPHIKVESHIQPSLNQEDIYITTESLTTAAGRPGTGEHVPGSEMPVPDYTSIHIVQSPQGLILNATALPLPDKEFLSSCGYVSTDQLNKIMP

| EC50 (nM), cell growth activity using BaF3/hGHR cells (absorbance at 490 nM) | EC50 of 22KhGH-mHSA relative to EC50 of mHSA-22KhGH, cell growth activity using BaF3/hGHR cells | EC50 of 22KhGH-HSA relative to EC50 of HSA-22KhGH, cell growth activity using BaF3/hGHR cells | Substance |
| --- | --- | --- | --- |
| 1.2 nM | 7.8 times |  | 22KhGH-mHSA (ligand) |
| 0.138 nM |  |  | HSA-22KhGH (ligand) |
| 0.153 nM |  |  | mHSA-22KhGH (ligand) |
| 0.878 nM |  | 6.4 times | 22KhGH-HSA (ligand) |
